Results: publication PMC8410870, “Reconstitution defines the roles of p62, NBR1 and TAX1BP1 in ubiquitin condensate formation and autophagy initiation” (Nature Communications, 2021)

B1: GST-FIP200 Claw (aa 1494-1594) (domain or fragment, UniProt Q8TDY2 1494-1594, looked up)
chain: EKIAIRDFQVGDLVLIILDERHDNYVLFTVSPTLYFLHSESLPALDLKPGEGASGASRRPWVLGKVMEKEYCQAKKAQNRFKVPLGTKFYRVKAVSWNKKV
notes: FIP200 Claw domain, aa 1494-1594; The tag's end is read from the construct's name; also called Claw domain of FIP200; source: expressed and purified as the GST-FIP200 CTR construct (previously described); not shown: GST, N-terminal, kept
B2: 6xHis-Strep-TEV-GFP-NBR1 (natural protein, human, UniProt Q14596 1-966, looked up)
chain: MEPQVTLNVTFKNEIQSFLVSDPENTTWADIEAMVKVSFDLNTIQIKYLDEENEEVSINSQGEYEEALKMAVKQGNQLQMQVHEGHHVVDEAPPPVVGAKRLAARAGKKPLAHYSSLVRVLGSDMKTPEDPAVQSFPLVPCDTDQPQDKPPDWFTSYLETFREQVVNETVEKLEQKLHEKLVLQNPSLGSCPSEVSMPTSEETLFLPENQFSWHIACNNCQRRIVGVRYQCSLCPSYNICEDCEAGPYGHDTNHVLLKLRRPVVGSSEPFCHSKYSTPRLPAALEQVRLQKQVDKNFLKAEKQRLRAEKKQRKAEVKELKKQLKLHRKIHLWNSIHGLQSPKSPLGRPESLLQSNTLMLPLQPCTSVMPMLSAAFVDENLPDGTHLQPGTKFIKHWRMKNTGNVKWSADTKLKFMWGNLTLASTEKKDVLVPCLKAGHVGVVSVEFIAPALEGTYTSHWRLSHKGQQFGPRVWCSIIVDPFPSEESPDNIEKGMISSSKTDDLTCQQEETFLLAKEERQLGEVTEQTEGTAACIPQKAKNVASERELYIPSVDLLTAQDLLSFELLDINIVQELERVPHNTPVDVTPCMSPLPHDSPLIEKPGLGQIEEENEGAGFKALPDSMVSVKRKAENIASVEEAEEDLSGTQFVCETVIRSLTLDAAPDHNPPCRQKSLQMTFALPEGPLGNEKEEIIHIAEEEAVMEEEEDEEDEEEEDELKDEVQSQSSASSEDYIIILPECFDTSRPLGDSMYSSALSQPGLERGAEGKPGVEAGQEPAEAGERLPGGENQPQEHSISDILTTSQTLETVPLIPEVVELPPSLPRSSPCVHHHGSPGVDLPVTIPEVSSVPDQIRGEPRGSSGLVNSRQKSYDHSRHHHGSSIAGGLVKGALSVAASAYKALFAGPPVTAQPIISEDQTAALMAHLFEMGFCDRQLNLRLLKKHNYNILQVVTELLQLNNNDWYSQRY
notes: NBR1, human, ORF amplified from HeLa cells cDNA; called full-length NBR1 in the results; Tag ends are read from the construct's name; a TEV site lies between Strep and GFP, cleavage is not mentioned; also called GFP-NBR1 WT; full-length NBR1; source: Sf9, purified (HisTrap, SEC on Superose 6); not shown: GFP, N-terminal, kept

Assays:
Assay in all cases: pull-down; microscopy-based protein-protein interaction assay: GST-tagged bait saturated on Glutathione Sepharose 4B beads, fluorescent prey at 2 µM, 25 mM HEPES pH 7.5, 150 mM NaCl, 1 mM DTT, 30 min-1 h at room temperature, beads imaged at the equilibrium by confocal microscopy
Conditions in all cases: both partners purified
6xHis-Strep-TEV-GFP-NBR1 = molecular target: B2
GST-FIP200 = molecular target: T1, GST-FIP200 (UniProt Q8TDY2 1-1594)
T1 construct: FIP200, insect codon-optimized gene purchased from GenScript; The tag's end is read from the construct's name; In the functional rows on condensates the protein added was FIP200-GFP (GST cleaved off GST-FIP200-GFP with 3C protease); source: Sf9, purified (Glutathione Sepharose 4B, SEC on Superose 6 Increase); not shown: GST, N-terminal, kept

[1] = molecular target: T2, GST fused to four M1-linked ubiquitin moieties (GST-4xUb) (UniProt P0CG48 1-76; P0CG48 1-76; P0CG48 1-76; P0CG48 1-76)
T2 construct: ubiquitin, first of four M1-linked (head-to-tail) moieties; ubiquitin, second of four M1-linked (head-to-tail) moieties; ubiquitin, third of four M1-linked (head-to-tail) moieties; ubiquitin, fourth of four M1-linked (head-to-tail) moieties; The tag's end is read from the construct's name; not shown: GST, N-terminal, kept
T2 sequence (P0CG48 1-304, one chain of several): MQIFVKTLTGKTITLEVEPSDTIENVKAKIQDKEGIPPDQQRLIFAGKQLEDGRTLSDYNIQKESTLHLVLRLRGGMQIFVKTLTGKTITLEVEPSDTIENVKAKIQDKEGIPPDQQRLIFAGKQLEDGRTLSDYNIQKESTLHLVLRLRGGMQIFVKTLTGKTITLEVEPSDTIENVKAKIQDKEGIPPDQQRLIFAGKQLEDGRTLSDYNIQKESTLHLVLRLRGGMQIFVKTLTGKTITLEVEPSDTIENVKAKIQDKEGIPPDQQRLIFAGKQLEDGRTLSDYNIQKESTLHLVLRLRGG

## B1
6xHis-Strep-TEV-GFP-NBR1
  binding result: binds

## B2
GST-FIP200
  binding result: binds
[1]
  binding result: binds
